Measured values taken from patent publication US20250352589A1, “OXYTOCIN-MIMETIC COMPOSITIONS AND USES THEREOF” (INSTITUT NATIONAL DE LA SANTÉ ET DE LA RECHERCHE MÉDICALE, priority 2021, published 2025).
Like-named read-outs stand apart in the source and are kept apart here.

What was measured:
[1] = biological target: T1, human OT-R (Homo sapiens, UniProt P30559); assay: Activation of OT-R by bacterial peptides: calcium release from HEK cells transfected with human OT-R; assay type: cell-based; details: for specific activation of OTR: OTR expressing HEK cells; for Emax: mean ± standard error, maximal amplitude of Ca2+ release, HEK cells expressing human OT-R; for activation of the oxytocin receptor: statement in the description, micromolar scale
T1 construct: expressed in transfected cells; host or cells: HEK cells
T1 sequence (P30559 1-389): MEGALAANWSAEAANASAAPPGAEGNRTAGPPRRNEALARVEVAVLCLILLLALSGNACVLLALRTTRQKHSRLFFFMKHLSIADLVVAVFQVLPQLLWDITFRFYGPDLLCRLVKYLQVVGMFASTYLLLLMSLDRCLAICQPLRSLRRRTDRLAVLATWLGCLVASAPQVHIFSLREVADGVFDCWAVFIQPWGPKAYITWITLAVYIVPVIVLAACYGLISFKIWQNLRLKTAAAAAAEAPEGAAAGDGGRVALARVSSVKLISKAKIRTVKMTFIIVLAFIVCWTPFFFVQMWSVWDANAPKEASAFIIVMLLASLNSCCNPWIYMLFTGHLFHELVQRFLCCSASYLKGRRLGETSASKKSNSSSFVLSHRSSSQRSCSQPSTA

[2] = system: anti-oxytocin antibodies; assay: Proteomic analysis: 2D gel and OT immunodetection (OT IgG) of bacterial proteomes; assay type: binding
Experimental: In this study, 14 bacteria-extracted proteomes were analyzed: (i) from 5 Bifidobacterium species grown in anaerobe conditions, (ii) from 5 Lactobacillus species grown in anaerobe culture conditions and (iii) from 4 aerotolerant Lactobacillus species grown in aerobe conditions. Each proteome analysis was performed in triplicate and was further separated in 3 fractions i.e. soluble (S), membrane (M), and residual (R) resulting in 9 samples/proteome). Each fraction was initially screened by western blot (WB) for the presence OT-like reactivity to validate it for further 2D-SDS-PAGE analysis. […] Finally, all fractions have been analyzed using 2D gel technique and OT immunodetection. 2D gel electrophoresis allowed to improve visibility of the less abundant proteins in a complex sample. Thereby, all samples were analyzed at least once with this method to scan optimally each proteome in the search for OT mimicry. […] The specificity for OT-like staining was controlled by pre-adsorption of OT-IgG with OT peptide.
All protein spots in silver nitrate staining gels corresponding to OT-like spots in the membrane were excised and analyzed by mass spectrometry

[3] = biological target: human oxytocin receptor (human, UniProt P30559); assay: cell-based or functional assay
[4] = 2D-immunoblotting, spots identified by mass spectrometry

Question: With CSCC[C@H](NC(=O)[C@@H]1CCCN1C(=O)CNC(=O)[C@H](CC(N)=O)NC(=O)[C@H](Cc1c[nH]c2ccccc12)NC(=O)[C@@H](NC(=O)[C@@H](NC(=O)[C@@H](NC(=O)[C@@H](N)CCCCN)[C@@H](C)O)C(C)C)C(C)C)C(=O)NCC(=O)O [Peptide 3] as the molecule, how does the “specific activation of OTR” value [1] read?
Answer: specifically activated OTR

Question: And the Emax [1]?
Answer: 302 ± 35.41

Question: What about the “activation of the oxytocin receptor” value [1] of the same molecule?
Answer: strongly activate the oxytocin receptor at a micromolar scale

Question: Which results are given for CC[C@H](C)[C@H](NC(=O)[C@H](Cc1ccc(O)cc1)NC(=O)[C@@H](N)CC(=O)O)C(=O)N[C@@H](CCCCN)C(=O)N[C@@H](CC(N)=O)C(=O)N[C@@H](CCSC)C(=O)N[C@H](C(=O)N[C@H](C(=O)NCC(=O)O)[C@@H](C)O)[C@@H](C)CC [Peptide 8]?
Answer: specific activation of OTR [1]: specifically activated OTR; Emax [1]: 140 ± 71.48; activation of the oxytocin receptor [1]: strongly activate the oxytocin receptor at a micromolar scale

Question: How did the “immune cross-reaction with anti-oxytocin antibodies” value (shortened to “immune cross-reaction”) [2, 4] turn out when Elongation factor Tu [SEQ ID NO:14] was run?
Answer: immune cross-react with anti-oxytocin antibodies

Question: Which “immune cross-reaction” value [2, 4] does the source give for Elongation factor Tu [SEQ ID NO:17] here?
Answer: immune cross-react with anti-oxytocin antibodies

Question: Enolase 2 [SEQ ID NO:8] was tested. Which “immune cross-reaction” value [2, 4] did it give?
Answer: immune cross-react with anti-oxytocin antibodies

Question: For “Glucose-6-phosphate isomerase [SEQ ID NO:18]”, which “immune cross-reaction” value [2] is on record?
Answer: immune cross-react with anti-oxytocin antibodies

Question: What does the source list for H-ATSKNCPIA-OH [Peptide 4]?
Answer: specific activation of OTR [1]: specifically activated OTR; Emax [1]: 304.6 ± 29.70

Question: With H-DFVKNMITG-OH [Peptide 17] as the molecule, how does the Emax [1] read?
Answer: 135.3 ± 8.92

Question: Which results are given for H-DYVKNMITG-OH [Peptide 1]?
Answer: specific activation of OTR [1]: specifically activated OTR; most efficient OT-like peptides ([1]; judged by EC50 and maximal amplitude of Ca2+ release): most efficient; Emax [1]: 273.8 ± 35.03; activation of the oxytocin receptor [1]: strongly activate the oxytocin receptor at a micromolar scale

Question: How did the “specific activation of OTR” value [1] turn out when H-KFVNDNELG-OH [Peptide 2] was run?
Answer: specifically activated OTR

Question: And the Emax [1]?
Answer: 164.8 ± 107.9

Question: What about the “activation of the oxytocin receptor” value [1] of the same molecule?
Answer: strongly activate the oxytocin receptor at a micromolar scale

Question: What does the source list for H-KQFVHENELG-OH [Peptide 7]?
Answer: specific activation of OTR [1]: specifically activated OTR; Emax [1]: 262.8 ± 35.64

Question: How did the “specific activation of OTR” value [1] turn out when H-KYIENISDE-OH [Peptide 14] was run?
Answer: specifically activated OTR

Question: What about the Emax [1] of the same molecule?
Answer: 221.5 ± 10.40

Question: With H-LTITNVPNS-OH [Peptide 5] as the molecule, how does the “specific activation of OTR” value [1] read?
Answer: specifically activated OTR

Question: And the Emax [1]?
Answer: 272 ± 99.09

Question: For H-QYIQEGR-OH [Peptide 6, H-QYIQEGR-OH], which “specific activation of OTR” value [1] is on record?
Answer: specifically activated OTR

Question: And the Emax [1]?
Answer: 99.42 ± 6.77

Question: And the “activation of the oxytocin receptor” value [1]?
Answer: strongly activate the oxytocin receptor at a micromolar scale

Question: Which “activation of the oxytocin receptor” value [1] does the source give for H-SYFYNKEDG-OH [Peptide 10, LG] here?
Answer: strongly activate the oxytocin receptor at a micromolar scale

Question: Which “activation of the oxytocin receptor” value [1] does the source give for “H-VDIQEFMIMPVG-OH [Peptide 9, Enolase 2 fragment 160-171; LG]” here?
Answer: strongly activate the oxytocin receptor at a micromolar scale

B1: OT-like peptide #6, Glucose-6-phosphate isomerase 313-319, H-QYIQEGR-OH (peptide)
peptide: H-QYIQEGR-OH
Question: What does the source list for B1?
Answer: EC50 of calcium release [3]: 3.79 µM; Emax of calcium release [3]: 99.4

B2: OT-like peptide #7, Glucose-6-phosphate isomerase 12-21, H-KQFVHENELG-OH (peptide)
peptide: H-KQFVHENELG-OH
Question: With B2 as the molecule, how does the “EC50 of calcium release” value [3] read?
Answer: 2.57 µM

Question: And the “Emax of calcium release” value [3]?
Answer: 263

B3: OT-like peptide #14, 2,3-bisphosphoglycerate-dependent phosphoglycerate mutase 191-199, H-KYIENISDE-OH (peptide)
peptide: H-KYIENISDE-OH
Question: With B3 as the molecule, how does the “EC50 of calcium release” value [3] read?
Answer: 8.93 µM

Question: What about the “Emax of calcium release” value [3] of the same molecule?
Answer: 222

B4: OT-like peptide #11, Fructose tagatose bisphosphate aldolase 1-8, H-MFQAARKG-OH (peptide)
peptide: H-MFQAARKG-OH
Question: For B4, which “Emax of calcium release” value [3] is on record?
Answer: 4.65

B5: OT-like peptide #15, Probable phosphoketolase 40-49, H-IYLRSNPLMK-OH (peptide)
peptide: H-IYLRSNPLMK-OH
Question: B5 was tested. Which “Emax of calcium release” value [3] did it give?
Answer: 5.36

B6: 2,5-didehydrogluconate reductase (protein, listed as Lactobacillus camelliae)
chain: MAEISKMSDTYTLSNGVKIPIVGFGTWQTPDGDVAKHSVEVAIKDGYRHIDTAAMYRNEDSVGEGIKAGLAAAGLKRDDLFVTTKLNNNAHSFDLVQKAIDESLTKLGLDHVDLYLIHWPNPVSFRDSYPDSLKETWRGMEQVYKDGKARAIGISNFRQAHLDVIKADATVEPMVNQIFLNPSDLQPAVTKMNAENNILSEAYSPLGTGKLLGNEELAKVAAKYGKGVAQVLLRWSLQHGFLPLAKSVHDARIKENTELFDFTLSDEDMKTLDGMRGVAGLATDPDTTNF
modifications: 2,5-didehydrogluconate reductase
notes: protein expressed by Lactobacillus camelliae
Question: For B6, which “immune cross-reaction” value [2, 4] is on record?
Answer: immune cross-react with anti-oxytocin antibodies

B7: OT-like peptide #1, Elongation factor Tu 87-95, H-DYVKNMITG-OH (peptide)
peptide: H-DYVKNMITG-OH
Question: What does the source list for B7?
Answer: EC50 of calcium release [3]: 2.77 µM; Emax of calcium release [3]: 274

B8: OT-like peptide #2, Glucose-6-phosphate isomerase 13-21, H-KFVNDNELG-OH (peptide)
peptide: H-KFVNDNELG-OH
Question: With B8 as the molecule, how does the “EC50 of calcium release” value [3] read?
Answer: 3.21 µM

Question: And the “Emax of calcium release” value [3]?
Answer: 165

B9: OT-like peptide #4, GMP synthase [glutamine-hydrolyzing] 154-162, H-ATSKNCPIA-OH (peptide)
peptide: H-ATSKNCPIA-OH
Question: How did the “EC50 of calcium release” value [3] turn out when B9 was run?
Answer: 3.09 µM

Question: And the “Emax of calcium release” value [3]?
Answer: 305

B10: OT-like peptide #13, Triosephosphate isomerase 61-68, H-CYFEDAGA-OH (peptide)
peptide: H-CYFEDAGA-OH
Question: Which “Emax of calcium release” value [3] does the source give for B10 here?
Answer: 17.9

B11: OT-like peptide #16, Elongation factor Tu 164-172, H-GFDRDCPVV-OH (peptide)
peptide: H-GFDRDCPVV-OH
Question: For B11, which “Emax of calcium release” value [3] is on record?
Answer: 2.13

B12: OT-like peptide #17, Elongation factor Tu 89-97, H-DFVKNMITG-OH (peptide)
peptide: H-DFVKNMITG-OH
Question: For B12, which “EC50 of calcium release” value [3] is on record?
Answer: 7.52 µM

Question: And the “Emax of calcium release” value [3]?
Answer: 135

B13: Fructose tagatose bisphosphate aldolase (protein, listed as Lactobacillus camelliae)
chain: MFQAARKGHYAIGAFNTNNLEWTRALLKGAQELNVPILIQTSMGAAKYMGGYKLCKALIELEAESMNITVPVVIHLDHGNFEAAKEAIAAGYNSVMFDGHDLPFDENLEKTKEIVKLAHAKGISVEAEVGSIGGEEDGVIGEGELASVEEAKTLAATGIDFMAAGIGNIHGKYPSNWKGLHFDRLQEIADAVDLPLVLHGGSGIPQDQVEKAISMGIAKLNINTECQLAFAKATREYILANKDQEGKGYDPRKLLAPGTQAITDTFKEISGWMGTRPVKMVPEEIK
modifications: Fructose tagatose bisphosphate aldolase
notes: as for B6
Question: Which “immune cross-reaction” value [2, 4] does the source give for B13 here?
Answer: immune cross-react with anti-oxytocin antibodies

B14: OT-like peptide #9, Enolase 2 160-171, H-[…]-OH (peptide)
peptide: H-VDIQEFMIMPVG-OH
Question: How did the “Emax of calcium release” value [3] turn out when B14 was run?
Answer: 119

B15: OT-like peptide #12, 2,5-didehydrogluconate reductase 202-210, H-AYSPLGTGK-OH (peptide)
peptide: H-AYSPLGTGK-OH
Question: B15 was tested. Which “Emax of calcium release” value [3] did it give?
Answer: 5.25

B16: 2,3-bisphosphoglycerate-dependent phosphoglycerate mutase (protein, listed as Lactobacillus camelliae)
chain: MAKLVLIRHGQSEWNLSNQFTGWVDVDLSEKGTEEAKEAGRRIKKAGLEFDQAYTSVLTRAIKTLHYALEESDQLWIPETKTWRLNERHYGALQGQNKAEAAKKWGDEQVHIWRRSYDTLPPLLSADDEGSAAKDRRYANLDPRIIPGGENLKVTLERVIPFWEDHIAPDLLDGKNVIIAAHGNSLRALTKYIENISDEDIINLEMTTGEPVVYTFNDKLEVTDKVKLSK
modifications: 2,3-bisphosphoglycerate-dependent phosphoglycerate mutase
notes: as for B6
Question: How did the “immune cross-reaction” value [2, 4] turn out when B16 was run?
Answer: immune cross-react with anti-oxytocin antibodies

B17: OT-like peptide #10, Enolase 246-254, H-SYFYNKEDG-OH (peptide)
peptide: H-SYFYNKEDG-OH
Question: How did the “Emax of calcium release” value [3] turn out when B17 was run?
Answer: 41.6

B18: OT-like peptide #5, Glutamine-fructose-6-phosphate aminotransferase [isomerizing] 371-379, H-LTITNVPNS-OH (peptide)
peptide: H-LTITNVPNS-OH
Question: B18 was tested. Which “EC50 of calcium release” value [3] did it give?
Answer: 2.7 µM

Question: And the “Emax of calcium release” value [3]?
Answer: 272

B19: Triosephosphate isomerase (protein, listed as Lactobacillus camelliae)
chain: MAGNWKMNKNPEETQAFLDGVKGKLPESSKVQTVIAAPAIDLTTLVAGAKGTPLQTAAENCYFEDAGAFTGETSPKALKDMGLDYVVIGHSERRGYFHETDQDINKKAKAILKNGLLPIICCGESLDQREAGQTNDWVASQVEAALAGISAADVKNSVIAYEPIWAIGTGKTASADQAQEVVAHIRSIVAKLYDAETADAVRILYGGSVKPANVKELMAKPDIDGGLVGGASMDPESFVALANYQD
modifications: Triosephosphate isomerase
notes: as for B6
Question: How did the “immune cross-reaction” value [2, 4] turn out when B19 was run?
Answer: immune cross-react with anti-oxytocin antibodies

B20: OT-like peptide #8, Elongation factor Tu 88-96, H-DYIKNMITG-OH (peptide)
peptide: H-DYIKNMITG-OH
Question: For B20, which “Emax of calcium release” value [3] is on record?
Answer: 140

B21: OT-like peptide #3, Phosphoglycerate kinase 317-326, H-KTVVWNGPMG-OH (peptide)
peptide: H-KTVVWNGPMG-OH
Question: With B21 as the molecule, how does the “Emax of calcium release” value [3] read?
Answer: 302
